± gives the standard deviation of the averaged measurements.
Assay: total protein half-life in vivo (active degradation + dilution); higher = more stable protein
[1] = E. coli NCM3722 delta-clpP delta-lon delta-hslV, growth: N-lim chemostat, doubling time 6 h
[2] = E. coli NCM3722 delta-clpP, growth: N-lim chemostat, doubling time 6 h
[3] = E. coli NCM3722 delta-hslV, growth: N-lim chemostat, doubling time 6 h
[4] = E. coli NCM3722 delta-lon, growth: N-lim chemostat, doubling time 6 h
[5] = E. coli NCM3722 delta-smpB, growth: N-lim chemostat, doubling time 6 h
[6] = wild type E. coli NCM3722, growth: C-lim chemostat, doubling time 3 h
[7] = wild type E. coli NCM3722, growth: C-lim chemostat, doubling time 6 h
[8] = wild type E. coli NCM3722, growth: C-lim chemostat, doubling time 12 h
[9] = wild type E. coli NCM3722, growth: N-lim chemostat, doubling time 6 h
[10] = wild type E. coli NCM3722, growth: N-lim chemostat, doubling time 12 h
[11] = wild type E. coli NCM3722, growth: P-lim chemostat, doubling time 6 h
[12] = wild type E. coli NCM3722, growth: P-lim chemostat, doubling time 12 h

Sequence | total protein half-life in vivo [1] [h] | total protein half-life in vivo [2] [h] | total protein half-life in vivo [3] [h] | total protein half-life in vivo [4] [h] | total protein half-life in vivo [5] [h] | total protein half-life in vivo [6] [h] | total protein half-life in vivo [7] [h] | total protein half-life in vivo [8] [h] | total protein half-life in vivo [9] [h] | total protein half-life in vivo [10] [h] | total protein half-life in vivo [11] [h] | total protein half-life in vivo [12] [h]
MIPEKRIIRRIQSGGCAIHCQDCSISQLCIPFTLNEHELDQLDNIIERKKPIQKGQTLFKAGDELKSLYAIRSGTIKSYTITEQGDEQITGFHLAGDLVGFDAIGSGHHPSFAQALETSMVCEIPFETLDDLSGKMPNLRQQMMRLMSGEIKGDQDMILLLSKKNAEERLAAFIYNLSRRFAQRGFSPREFRLTMTRGDIGNYLGLTVETISRLLGRFQKSGMLAVKGKYITIENNDALAQLAGHTRNVA [P0A9E5] | 4.34 ± 0.13 | 2.99 ± 0.00054 | 1.2 ± 0.057 | 1.4 ± 0.028 | 1.24 ± 0.03 | 1.23 ± 0.064 | 1.708 ± 0.0036 | 2.2 ± 0.069 | 1.35 ± 0.091 | 1.68 ± 0.09 | 1.65 ± 0.039 | 2.37 ± 0.86
MIPFNAPPVVGTELDYMQSAMGSGKLCGDGGFTRRCQQWLEQRFGSAKVLLTPSCTASLEMAALLLDIQPGDEVIMPSYTFVSTANAFVLRGAKIVFVDVRPDTMNIDETLIEAAITDKTRVIVPVHYAGVACEMDTIMALAKKHNLFVVEDAAQGVMSTYKGRALGTIGHIGCFSFHETKNYTAGGEGGATLINDKALIERAEIIREKGTNRSQFFRGQVDKYTWRDIGSSYLMSDLQAAYLWAQLEAADRINQQRLALWQNYYDALAPLAKAGRIELPSIPDGCVQNAHMFYIKLRDIDDRSALINFLKEAEIMAVFHYIPLHGCPAGEHFGEFHGEDRYTTKESERLLRLPLFYNLSPVNQRTVIATLLNYFS | 4.72 ± 0.099 | 4.4 ± 0.0057 | 4.83 ± 0.25 | 4.45 | 4.25 ± 0.17 | 2.89 ± 0.68 | 6.6 ± 1 | 12.5 ± 1.2 | 5.2 | 8.13 ± 0.2 | 6.1125 ± 0.0047 | 12.33 ± 0.05
MIPLQHGLILAAILFVLGLTGLVIRRNLLFMLIGLEIMINASALAFVVAGSYWGQTDGQVMYILAISLAAAEASIGLALLLQLHRRRQNLNIDSVSEMRG [P0AFE4] |  | 6.43 | 7.8 | > 8 | 5.17 | 3.31 | 7.48 ± 0.41 | 11.7 |  |  | 7.16 ± 0.3 | 13.1 ± 1.5
MIPQISQAPGVVQLVLNFLQELEQQGFTGDTATSYADRLTMSTDNSIYQLLPDAVVFPRSTADVALIARLAAQERYSSLIFTPRGGGTGTNGQALNQGIIVDMSRHMNRIIEINPEEGWVRVEAGVIKDQLNQYLKPFGYFFAPELSTSNRATLGGMINTDASGQGSLVYGKTSDHVLGVRAVLLGGDILDTQPLPVELAETLGKSNTTIGRIYNTVYQRCRQQRQLIIDNFPKLNRFLTGYDLRHVFNDEMTEFDLTRILTGSEGTLAFITEARLDITRLPKVRRLVNVKYDSFDSALRNAPFMVEARALSVETVDSKVLNLAREDIVWHSVSELITDVPDQEMLGLNIVEFAGDDEALIDERVNALCARLDELIASHQAGVIGWQVCRELAGVERIYAMRKKAVGLLGNAKGAAKPIPFAEDTCVPPEHLADYIAEFRALLDSHGLSYGMFGHVDAGVLHVRPALDMCDPQQEILMKQISDDVVALTAKYGGLLWGEHGKGFRAEYSPAFFGEELFAELRKVKAAFDPHNRLNPGKICPPEGLDAPMMKVDAVKRGTFDRQIPIAVRQQWRGAMECNGNGLCFNFDARSPMCPSMKITQNRIHSPKGRATLVREWLRLLADRGVDPLKLEQELPESGVSLRTLIARTRNSWHANKGEYDFSHEVKEAMSGCLACKACSTQCPIKIDVPEFRSRFLQLYHTRYLRPLRDHLVATVESYAPLMARAPKTFNFFINQPLVRKLSEKHIGMVDLPLLSVPSLQQQMVGHRSANMTLEQLESLNAEQKARTVLVVQDPFTSYYDAQVVADFVRLVEKLGFQPVLLPFSPNGKAQHIKGFLNRFAKTAKKTADFLNRMAKLGMPMVGVDPALVLCYRDEYKLALGEERGEFNVLLANEWLASALESQPVATVSGESWYFFGHCTEVTALPGAPAQWAAIFARFGAKLENVSVGCCGMAGTYGHEAKNHENSLGIYELSWHQAMQRLPRNRCLATGYSCRSQVKRVEGTGVRHPVQALLEIIK | 5.93 ± 0.31 | 5.92 ± 0.38 | 6.06 ± 0.28 | 6.07 ± 0.22 | 5.58 ± 0.1 | 2.92 ± 0.41 | 5.76 ± 0.42 | 11.1 ± 0.65 | 5.75 ± 0.096 | 12.3 ± 0.23 | 5.88 ± 0.11 | 11.6 ± 0.3
MIQKSKIKDLVVFTDENNSKYLNVLNDFLSYNINIIKVFRSIDDTKVMLIDTDYGKLILKVFSPKVKRNERFFKSLLKGDYYERLFEQTQKVRNEGLNTLNDFYLLAERKTLRFVHTYIMIIEYIDGIELCDMPDIDDALKNKIQQSINALHQHGMVSGDPHRGNFIIKNGEVRIIDLSGKRASAQRKAKDRIDLERHYGIKNEIRDLGYYLLVYRKKMRNFMRRLKGKPAR |  | 6.73 ± 0.18 | 5.7 ± 0.17 | 6.35 ± 0.15 | 6.04 ± 0.22 | 3.31 ± 0.043 | 5.885 ± 0.011 | 9.9 ± 1 | 5.86 ± 0.76 | 12.09 ± 0.019 | 5.84 ± 0.34 | 11.8 ± 0.82

— the supplement of paper PMC11246515
